{"source": "the nanobody polyreactivity screen of Harvey et al. (2022)", "data": [{"test": "yeast display, Sf9 membrane polyspecificity reagent, FACS + sequencing; frameworks hold sequencing errors", "procedure,_shortened": "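A nanobody's polyreactivity label depends on the gate it was sorted from. Yeast display cells were stained with 10% biotinylated, detergent-solubilized Sf9 membrane reagent for 1 hour at 4 °C, enriched on streptavidin microbeads and sorted by FACS. The low and high (top ~1%) gates were set on anti-HA fluorescence for expression and streptavidin fluorescence for reagent binding.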", "values": [{"sequence": "QVQLVESGGGLVQAGGSLRLSCAASGIIFRPYAMGWYRQAPGKERELVAAITWSVTSTYYADSVKGRFTISRDNAKNTVYLQMNSLKPEDTAVYYCAATCSYGVSWYEYWGQGTQVTVSS", "polyreactivity (PSR sort gate)": "high polyreactivity"}, {"sequence": "QVQLVESGGGLVQAGGSLRLSCAASGRIFGINAMGWYRQAPGKERELVAAINRSGDTTNYADSVKGRFTISRDNAKNTVYLQMNSLKPEDTAVYYCAADGYRQVYYRYYYWGQGTQVTVSS", "polyreactivity (PSR sort gate)": "high polyreactivity"}, {"sequence": "QVQLVESGGGLVQAGGSLRLSCAASGRTFGGYTMGWYRQAPGKERELVAAITGSGSNTYYADSVKGRFTISRDNAKNTVYLQMNSLKPEDTAVYYCAAPYSYRTWYPYGYWGQGTQVTVSS", "polyreactivity (PSR sort gate)": "high polyreactivity"}, {"sequence": "QVQLVESGGGLVQAGGSLRLICAASGSTFQDYGMGWYRQAPGKERELVAAITTGDITNYADSVKGRFTISRDNAKKTVYLQMNSLKAEDTAVYYCNAEPKFYPDAGDDYWGQGTQVTVSS", "polyreactivity (PSR sort gate)": "low polyreactivity"}, {"sequence": "QVHLVESGGGLVQAGGSLRLSCAASGSIFYPYAMGWYRQAPGKERELVAAISGRGGNTYYADSVKGRFTISRDNAKNTVYFQMNSLKPEDTAVYYCAADRYYWSLYGYDYWGQGTQVTVSS", "polyreactivity (PSR sort gate)": "high polyreactivity"}, {"sequence": "QVQLLESGGGLVQAGGSLRLSCAASGLTVYGYVMAWYRHAPGKERELVASISRSGCRTYYADSVKGRFTISRDNEKNTVYLQMNSLKPEDTAVYYCAADDQVGQEDDYWGQGTQVTVSS", "polyreactivity (PSR sort gate)": "low polyreactivity"}, {"sequence": "QVQLVESGGGLVHAGGSLRLTCAASGSTFGKYAMGWYRQAPGKERELVAAITWSGASTFYADSVKGRFTISRDNAKNTVYLQMNSMKPEDTAGYYCAARSFKSYYIFDYWGQGTQVTVSS", "polyreactivity (PSR sort gate)": "low polyreactivity"}, {"sequence": "QVQLVESGGGLVHAGGSLRLSCAASGSTFHYYAMGWYRQPPGKERELDAGITSGGGRTYADSVKGRFTISRDNAKITVYLQMNSLNPEDTAVYYCNARPSTGWTIYGVDYWGQGTQVTVSS", "polyreactivity (PSR sort gate)": "low polyreactivity"}, {"sequence": "QVQLVESGGGLVQAGGSLRLSCAASGFIFVRYALGWYSQAPGKEMELVAAIRRGGGDSSYYADSVKGRFTISRDNAKNTVYLQMNSLKPEDTAVYYCAARPAIERDYWGQGTQVTVSS", "polyreactivity (PSR sort gate)": "high polyreactivity"}, {"sequence": "QVQLVESGGGLVQAGGSLRLSCAASGSTVGANAMGWYRQAPGKERELVATISSGGRTYYADSVKGRFTISRDNAKNTVYLQMNSLKPEDTAVYYCNAGADYTYVYISVYVLYDYWGQGTQVTVSS", "polyreactivity (PSR sort gate)": "low polyreactivity"}, {"sequence": "QVQLVESGGGLVQAGGSLRLSCAASGFTFYRYAMGWYRQAPGKERELVAAITSGGDTYYADSVKGRFTISRDNAKNTVYLQMNSLKPEDTAVYYCAAAPRYGYGLASDSIFDYWGQGTQVTVSS", "polyreactivity (PSR sort gate)": "high polyreactivity"}, {"sequence": "QVQLVESGGGLVQAGGSLRLSCAASGRTFGWNVMGWYRQAPGKERELVAAISGSGASTYYADSVKGRFTISRDNAKNTVYLQMNSLKPEDTAVYYCAAVQGYRFYEYYYWGQGTKVTVSS", "polyreactivity (PSR sort gate)": "low polyreactivity"}, {"sequence": "QVQLVESGGGLVQAGGSLRLSCAASGRTFWFNAMGWYRQAPGKEREFVAAISWRGGSTYYADSVKGRFTISRDNAKNTVYLQMNSLKPEDTAVYYCAVDGEYYSDVYLYYRWDDYWGQGTQVTVSS", "polyreactivity (PSR sort gate)": "low polyreactivity"}, {"sequence": "QVQLVESGGGLVQAGGSLRLSCAASGSIFSGNAMGWYRPAPGKERELVAAISSNGGRTYYADSVKGRFTISRDNAKNTVYLQMNSLKPEDTAVYYCAADYGKRRYGYYYWGQGTQVTVSS", "polyreactivity (PSR sort gate)": "high polyreactivity"}, {"sequence": "QVHLVESGGGLVQAGGSLRLTCAASGSILAYNAMGWYRQAPGKERELVAAIRLSGGSTYYADSVKGRFTISRDNAKNTVYLQMNSLKPEDTAVYYCARRYYRYDTRKYNYWGQGTKVTVSS", "polyreactivity (PSR sort gate)": "high polyreactivity"}, {"sequence": "QVQLVESGGGLVQAGGSLRLSCAASGSTFRFYTMGWYRQAPGKERELVAAISGSGGSTYYADSVKGRFTISRDNAKNTVYLQMNSLKPEDTADYYCAADKSRNASHRGYWGQGTQVTVSS", "polyreactivity (PSR sort gate)": "low polyreactivity"}, {"sequence": "QVQLVESGGGLVQAGGSLRLSCAASGFIFTDNAMGWYRQAPGKDREFVAAITYSGGSTYYADSVKGRFTISRDNAKNTVYFQMNSLKPVDTAVYYCNKDVFPAPGGVTAYEYEYWGQGTQVTVSS", "polyreactivity (PSR sort gate)": "low polyreactivity"}, {"sequence": "QVQLVESGGGLVQAGGSLRLICAASGSIFNQNSMGWYRQAPGKERELVAVISSGGRTSYADSVKGRFTISRDNAKNTVFLLMNSLKPEDTAVYYCNREGWHYGPYGYWGQGTQVTVSS", "polyreactivity (PSR sort gate)": "low polyreactivity"}, {"sequence": "QVQLVESGGGLVQAGGSLRLSCAASGRIFKSYAMGWYRQAPGKEMELVAAINWSGGSTYYADSVKGRFTISRDNAKNTVYLQMNSLKPEDTAVYYCNALYAVRSYDSWGQGTQVTVSS", "polyreactivity (PSR sort gate)": "high polyreactivity"}, {"sequence": "QVQLVESGGGLVQAGGSLRLSCAASGFIFTGYAMGWYRQAPGKERELVAAISRRGGSTYYADSVKGRFTISRDNAKNTVYLQMNSLKPEDTAVYYCAARTRTNGFDDWGQGTQVTVSS", "polyreactivity (PSR sort gate)": "high polyreactivity"}, {"sequence": "QVQLVESGGGLVQAGGSLRLSCAASGRIFGGYARGWYRQAPGKERELVAVINGGTSTKYADSVKGRFTISRDNAKNTVYLQMNSLKPEDTAVYYCAKTRHDSLQNRNRYDYWGQGTQVTVSS", "polyreactivity (PSR sort gate)": "low polyreactivity"}, {"sequence": "QVQLVESGGGLVQAGGSLRLSCAASGSTYNVNAMGWARQAPGKERELVAAITSSGGSSNYADSVKGRFTISRDNAKNTVYLQMNSLKPEDTAVYYCAADAIFFSRLNLGYDYWGQGTQVTVSS", "polyreactivity (PSR sort gate)": "low polyreactivity"}, {"sequence": "QVQLVESGGGLVQAGGSLRLSCDASGRTFGRNAMGWYRQAPGERELGAVISRGGSTYYADSVKGRFTISRDNAKNTVYLQRNSLKPEDTAVYYCNADTVYTRTAPYDYWGQGTQVTVSS", "polyreactivity (PSR sort gate)": "low polyreactivity"}, {"sequence": "QVQLVESGGGLVQAGGSLRLSCAASGSIFKYNTMGWYRQAPRKERELVAAINGGGSTYYADSVKGRFTISRDNAKNTVYLLMNSLKPEDTAVYYCNARQWYWESPDDYWGQGTQVTVSS", "polyreactivity (PSR sort gate)": "low polyreactivity"}, {"sequence": "QVQLVESGGGLVQAGGSLRLSCAASGLIFPRYTMGWYRQAPGKERELVAAIRGTGGSTYYADSVKGRFTISRDNPKNTVYLQLNSLKPEDTAVYYCATRGKSHGQQFNYWGQGTQVTVSS", "polyreactivity (PSR sort gate)": "high polyreactivity"}, {"sequence": "QVQLVESGGGIVQAGGSLRLSCAASGNIFDDNAMGWYRQAPGKDRELVAAITSRGTRTYYADSVKGRFTISRDNAKNTVYLQMNSLKPEDTAVYYCAAGSYYWGQGSQVTVSS", "polyreactivity (PSR sort gate)": "high polyreactivity"}, {"sequence": "QVQLVESGGGLVQAGGSLRLSCAASGSISYDYAMGWYRQAPGKERELVASITSRGGSTYADSVKGRFTISRDNAKNTVYLQMNSLKPEDTAVYYCAADAIPNLIFISLPFGLDYWGQGTQVTVSS", "polyreactivity (PSR sort gate)": "low polyreactivity"}, {"sequence": "QVQLVESGGGLVQAGGSLRLSCAASGSIFGSYAMGWYRQAPGKERDLVAAISGSGGRTYYADSVKGRFTISRDNAKNTVYLQMNSLKPEDTAVYYCAAAYPRVTYKYGYYWGQGTQVTVSS", "polyreactivity (PSR sort gate)": "high polyreactivity"}, {"sequence": "QVQLVESGGGLVQAGGSLRLSCAASGFILTQYAMGWYREAPGKERELVASISSSGSTYYADSVKGRFTISRDNAKNTVYLQMNSLKPEDTGVYYCATPGPAVHGTRGEYDYWGQGTQVTVSS", "polyreactivity (PSR sort gate)": "high polyreactivity"}, {"sequence": "QVQLVESGGGLVQAGGSLRLSCAASGRIFRYNAMGLYRQAPGKERELVAAISRGGSSTYYADSVKGRFTISRDNAKNTVYLQMNSLKPEDTAVYYCNARSVVREFNYWGQGTQVTVSS", "polyreactivity (PSR sort gate)": "high polyreactivity"}, {"sequence": "QVQLVESGGGLVQAGGSLRLSCAASGITFDRYLMGWYRQAPGKERELDAAISWTGDSTYYADSVKGRFTISRDNAKNTVYLQMNSLKPEDPAVYYCAAEDLWYGYNYWGQGTQVTVSS", "polyreactivity (PSR sort gate)": "high polyreactivity"}, {"sequence": "QVQLVESGGGLVQAGGSLRLSCAASGRTFYVYAMGWYRQAPGKERELVASISWIGDDTYYADSVKGRFTISRDNAKNTVYLQMNSLKPEDTAVYYCAVLVLGDYGYEYWGQGTQVTVSS", "polyreactivity (PSR sort gate)": "high polyreactivity"}]}]}
